Experimental data taken from publication PMC5490264 (Nature Communications, 2017).

B1: Halo-YscQ (natural protein)
chain: MSLLTLPQAKLSELSLRQRLSHYRQNYLWEEGKLELTVSEPPSSLNCILQLQWKGTHFTLYCFGDDLANWLTPDLLGAPFSTLPKELQLALLERQTVFLPKLVCNDIATASLSVTQPLLSLRLSRDNAHISFWLTSAEALFALLPARPNSERIPLPILLSLRWHKVYLTLDEVDSLRLGDVLLAPEGSGPNSPVLAYVGENPWGYFQLQSNKLEFIGMSHESDELNPKPLTDLNQLPVQVSFEVGRQILDWHTLTSLEPGSLIDLTTPVDGEVRLLANGRLLGHGRLVEIQGRLGVRIERLTEVTIS
notes: also called Halo-tagged YscQ; SctQ/YscQ

Experiments:
[1] = target: B1; assay: affinity purification with mass spectrometry; as a1, but strains lacking YscD (ΔyscD; all soluble components diffuse in the cytosol); amounts normalized to the WT strain; one representative quantitative mass spectrometry experiment; conditions: partners not purified
[2] = target: the molecule itself; assay: as above

Binder | degree of interaction in the ΔyscD strain relative to the WT strain [1] [%] | degree of interaction in the ΔyscD strain relative to the WT strain [2] [%]
YscL (natural protein, YscL (SctL), negative regulator of the T3SS ATPase, Yersinia enterocolitica; untagged; also called SctL/YscL; negative regulator of the ATPase; source: endogenous, Y. enterocolitica lysate (strain expressing Halo-YscQ)) MSQTCQTGYAYMQPFVQIIPSNLSLACGLRILRAEDYQSSLTTEELISAAKQDAEKILADAQEVYEQQKQLGWQAGMDEARTLQATLIHETQLQCQQFYRHVEQQMSEVVLLAVRKILNDYDQVDMTLQVVREALALVSNQKQVVVRVNPDQAGTIREQIAKVHKDFPEISYLEVTADARLDQGGCILETEVGIIDASIDGQIEALSRAISTTLGQMKVTEEE | ~50 | 
YscN (enzyme, YscN (SctN), type III secretion ATPase, Yersinia enterocolitica; also called SctN/YscN; T3SS ATPase; source: endogenous, Y. enterocolitica lysate (pYV virulence plasmid)) MLSLDQIPHHIRHGIVGSRLIQIRGRVTQVTGTLLKAVVPGVRIGELCYLRNPDNSLSLQAEVIGFAQHQALLIPLGEMYGISSNTEVSPTGTMHQVGVGEHLLGQVLDGLGQPFDGGHLPEPAAWYPVYQDAPAPMSRKLITTPLSLGIRVIDGLLTCGEGQRMGIFAAAGGGKSTLLASLIRSAEVDVTVLALIGERGREVREFIESDLGEEGLRKAVLVVATSDRPSMERAKAGFVATSIAEYFRDQGKRVLLLMDSVTRFARAQREIGLAAGEPPTRRGYPPSVFAALPRLMERAGQSSKGSITALYTVLVEGDDMTEPVADETRSILDGHIILSRKLAAANHYPAIDVLRSASRVMNQIVSKEHKTWAGDLRRLLAKYEEVELLLQIGEYQKGQDKEADQAIERIGAIRGWLCQGTHELSHFNETLNLLETLTQ | ~20 | 
B1 |  | ~50
